Laboratory results published in publication PMC4869107, “In vitro flow cytometry-based screening platform for cellulase engineering” (Scientific Reports, 2016).

tested on: T1, Cc1cc(=O)oc2cc(O[C@@H]3O[C@H](CO)[C@@H](O[C@@H]4O[C@H](CO)[C@@H](O)[C@H](O)[C@H]4O)[C@H](O)[C@H]3O)ccc12; experiment: purified protein; type: biochemical, uncultured bacterium; settings: potassium phosphate pH 7.2, 30 °C (general assay; kinetics by cited protocol)
T1 construct: 604 residues, ~69 kDa; expressed in E. coli BL21 Gold (DE3)

Substance	Km	kcat [s⁻¹]	kcat/Km [M⁻¹ s⁻¹]
CelA2 (CelA2-WT) (uncultured bacterium)	48.37 (±2.43) μM	0.00183 ± 0.00035	33.3
CelA2 (CelA2-WT) (uncultured bacterium; H288F)	8.95 (±1.62) μM	0.00833 ± 0.000367	933
CelA2 (CelA2-WT) (uncultured bacterium; H288F/N273D/N468S)	9.66 (±1.19) μM	0.0253 ± 0.000767	2620
